Sequences and labels used below:
B1: PRKCE (protein)
chain: MVVFNGLLKIKICEAVSLKPTAWSLRHAVGPRPQTFLLDPYIALNVDDSRIGQTATKQKTNSPAWHDEFVTDVCNGRKIELAVFHDAPIGYDDFVANCTIQFEELLQNGSRHFEDWIDLEPEGRVYVIIDLSGSSGEAPKDNEERVFRERMRPRKRQGAVRRRVHQVNGHKFMATYLRQPTYCSHCRDFIWGVIGKQGYQCQVCTCVVHKRCHELIITKCAGLKKQETPDQVGSQRFSVNMPHKFGIHNYKVPTFCDHCGSLLWGLLRQGLQCKVCKMNVHRRCETNVAPNCGVDARGIAKVLADLGVTPDKITNSGQRRKKLIAGAESPQPASGSSPSEEDRSKSAPTSPCDQEIKELENNIRKALSFDNRGEEHRAASSPDGQLMSPGENGEVRQGQAKRLGLDEFNFIKVLGKGSFGKVMLAELKGKDEVYAVKVLKKDVILQDDDVDCTMTEKRILALARKHPYLTQLYCCFQTKDRLFFVMEYVNGGDLMFQIQRSRKFDEPRSRFYAAEVTSALMFLHQHGVIYRDLKLDNILLDAEGHCKLADFGMCKEGILNGVTTTTFCGTPDYIAPEILQELEYGPSVDWWALGVLMYEMMAGQPPFEADNEDDLFESILHDDVLYPVWLSKEAVSILKAFMTKNPHKRLGCVASQNGEDAIKQHPFFKEIDWVLLEQKKIKPPFKPRIKTKRDVNNFDQDFTREEPVLTLVDEAIVKQINQEEFKGFSYFGEDLMP
B2: PAK3 (protein)
chain: MSDGLDNEEKPPAPPLRMNSNNRDSSALNHSSKPLPMAPEEKNKKARLRSIFPGGGDKTNKKKEKERPEISLPSDFEHTIHVGFDAVTGEFTGIPEQWARLLQTSNITKLEQKKNPQAVLDVLKFYDSKETVNNQKYMSFTSGDKSAHGYIAAHPSSTKTASEPPLAPPVSEEEDEEEEEEEDENEPPPVIAPRPEHTKSIYTRSVVESIASPAVPNKEVTPPSAENANSSTLYRNTDRQRKKSKMTDEEILEKLRSIVSVGDPKKKYTRFEKIGQGASGTVYTALDIATGQEVAIKQMNLQQQPKKELIINEILVMRENKNPNIVNYLDSYLVGDELWVVMEYLAGGSLTDVVTETCMDEGQIAAVCRECLQALDFLHSNQVIHRDIKSDNILLGMDGSVKLTDFGFCAQITPEQSKRSTMVGTPYWMAPEVVTRKAYGPKVDIWSLGIMAIEMVEGEPPYLNENPLRALYLIATNGTPELQNPERLSAVFRDFLNRCLEMDVDRRGSAKELLQHPFLKLAKPLSSLTPLIIAAKEAIKNSSR
B3: EPHB2 (protein)
chain: CNRRGFERADSEYTDKLQHYTSGHMTPGMKIYIDPFTYEDPNEAVREFAKEIDISCVKIEQVIGAGEFGEVCSGHLKLPGKREIFVAIKTLKSGYTEKQRRDFLSEASIMGQFDHPNVIHLEGVVTKSTPVMIITEFMENGSLDSFLRQNDGQFTVIQLVGMLRGIAAGMKYLADMNYVHRDLAARNILVNSNLVCKVSDFGLSRFLEDDTSDPTYTSALGGKIPIRWTAPEAIQYRKFTSASDVWSYGIVMWEVMSYGERPYWDMTNQDVINAIEQDYRLPPPMDCPSALHQLMLDCWQKDRNHRPKFGQIVNTLDKMIRNPNSLKAMAPLSSGINLPLLDRTIPDYTSFNTVDEWLEAIKMGQYKESFANAGFTSFDVVSQMMMEDILRVGVTLAGHQKKILNSIQVMRAQMNQIQSVEV
B4: PLK3 (protein)
chain: SGRTYLKGRLLGKGGFARCYEATDTETGSAYAVKVIPQSRVAKPHQREKILNEIELHRDLQHRHIVRFSHHFEDADNIYIFLELCSRKSLAHIWKARHTLLEPEVRYYLRQILSGLKYLHQRGILHRDLKLGNFFITENMELKVGDFGLAARLEPPEQRKKTICGTPNYVAPEVLLRQGHGPEADVWSLGCVMYTLLCGSPPFETADLKETYRCIKQVHYTLPASLSLPARQLLAAILRASPRDRPSIDQILRHDFFTKGYTPDRLPISSCVTVPDLTPPNPA
B5: PHKG2 (protein)
chain: MTLDVGPEDELPDWAAAKEFYQKYDPKDVIGRGVSSVVRRCVHRATGHEFAVKIMEVTAERLSPEQLEEVREATRRETHILRQVAGHPHIITLIDSYESSSFMFLVFDLMRKGELFDYLTEKVALSEKETRSIMRSLLEAVSFLHANNIVHRDLKPENILLDDNMQIRLSDFGFSCHLEPGEKLRELCGTPGYLAPEILKCSMDETHPGYGKEVDLWACGVILFTLLAGSPPFWHRRQILMLRMIMEGQYQFSSPEWDDRSSTVKDLISRLLQVDPEARLTAEQALQHPFFERCEGSQPWNLTPRQRFRVAVWTVLAAGRVALSTHRVRPLTKNALLRDPYALRSVRHLIDNCAFRLYGHWVKKGEQQNRAALFQHRPPGPFPIMGPEEEGDSAAITEDEAVLVLG
B6: PAK1 (protein)
chain: MSNNGLDIQDKPPAPPMRNTSTMIGAGSKDAGTLNHGSKPLPPNPEEKKKKDRFYRSILPGDKTNKKKEKERPEISLPSDFEHTIHVGFDAVTGEFTGMPEQWARLLQTSNITKSEQKKNPQAVLDVLEFYNSKKTSNSQKYMSFTDKSAEDYNSSNALNVKAVSETPAVPPVSEDEDDDDDDATPPPVIAPRPEHTKSVYTRSVIEPLPVTPTRDVATSPISPTENNTTPPDALTRNTEKQKKKPKMSDEEILEKLRSIVSVGDPKKKYTRFEKIGQGASGTVYTAMDVATGQEVAIKQMNLQQQPKKELIINEILVMRENKNPNIVNYLDSYLVGDELWVVMEYLAGGSLTDVVTETCMDEGQIAAVCRECLQALEFLHSNQVIHRDIKSDNILLGMDGSVKLTDFGFCAQITPEQSKRSTMVGTPYWMAPEVVTRKAYGPKVDIWSLGIMAIEMIEGEPPYLNENPLRALYLIATNGTPELQNPEKLSAIFRDFLNRCLEMDVEKRGSAKELLQHQFLKIAKPLSSLTPLIAAAKEATKNNH
B7: PAK6 (protein)
chain: MFRKKKKKRPEISAPQNFQHRVHTSFDPKEGKFVGLPPQWQNILDTLRRPKPVVDPSRITRVQLQPMKTVVRGSAMPVDGYISGLLNDIQKLSVISSNTLRGRSPTSRRRAQSLGLLGDEHWATDPDMYLQSPQSERTDPHGLYLSCNGGTPAGHKQMPWPEPQSPRVLPNGLAAKAQSLGPAEFQGASQRCLQLGACLQSSPPGASPPTGTNRHGMKAAKHGSEEARPQSCLVGSATGRPGGEGSPSPKTRESSLKRRLFRSMFLSTAATAPPSSSKPGPPPQSKPNSSFRPPQKDNPPSLVAKAQSLPSDQPVGTFSPLTTSDTSSPQKSLRTAPATGQLPGRSSPAGSPRTWHAQISTSNLYLPQDPTVAKGALAGEDTGVVTHEQFKAALRMVVDQGDPRLLLDSYVKIGEGSTGIVCLAREKHSGRQVAVKMMDLRKQQRRELLFNEVVIMRDYQHFNVVEMYKSYLVGEELWVLMEFLQGGALTDIVSQVRLNEEQIATVCEAVLQALAYLHAQGVIHRDIKSDSILLTLDGRVKLSDFGFCAQISKDVPKRKSLVGTPYWMAPEVISRSLYATEVDIWSLGIMVIEMVDGEPPYFSDSPVQAMKRLRDSPPPKLKNSHKVSPVLRDFLERMLVRDPQERATAQELLDHPFLLQTGLPECLVPLIQLYRKQTSTC
B8: EPHB1 (protein)
chain: SRKRAYSKEAVYSDKLQHYSTGRGSPGMKIYIDPFTYEDPNEAVREFAKEIDVSFVKIEEVIGAGEFGEVYKGRLKLPGKREIYVAIKTLKAGYSEKQRRDFLSEASIMGQFDHPNIIRLEGVVTKSRPVMIITEFMENGALDSFLRQNDGQFTVIQLVGMLRGIAAGMKYLAEMNYVHRDLAARNILVNSNLVCKVSDFGLSRYLQDDTSDPTYTSSLGGKIPVRWTAPEAIAYRKFTSASDVWSYGIVMWEVMSFGERPYWDMSNQDVINAIEQDYRLPPPMDCPAALHQLMLDCWQKDRNSRPRFAEIVNTLDKMIRNPASLKTVATITAVPSQPLLDRSIPDFTAFTTVDDWLSAIKMVQYRDSFLTAGFTSLQLVTQMTSEDLLRIGITLAGHQKKILNSIHSMRVQISQSPTAMA

For this data set, the target named is T1, Bovine, dephosphorylated, Myelin Basic Protein (MBP), P02687.
T1 chain: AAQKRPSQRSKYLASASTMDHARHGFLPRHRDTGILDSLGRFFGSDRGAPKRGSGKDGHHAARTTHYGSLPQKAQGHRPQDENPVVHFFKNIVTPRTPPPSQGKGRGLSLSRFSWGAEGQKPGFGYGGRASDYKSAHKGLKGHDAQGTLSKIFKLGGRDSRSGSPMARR
On to B1, for which the “MBP Kinase Activity” value was “Strong”.

B2: the “MBP Kinase Activity” value was “Weak”.

On to B3, for which the “MBP Kinase Activity” value was “Strong”.

As for B4, the “MBP Kinase Activity” value is reported as “Negative”.

For B5, the “MBP Kinase Activity” value is reported as “Negative”.

Regarding B6, the “MBP Kinase Activity” value is recorded as “Negative”.

Consider B7, for which the “MBP Kinase Activity” value is on record as “Negative”.

Turning to B8, the “MBP Kinase Activity” value was “Strong”.

The values above are taken from patent US20090099029.
